# Results taken from article PMC12439599 (RNA (New York, N.Y.), 2025).
# Residue numbers refer to the chain shown, from its start.
# T1: S. cerevisiae eIF5-CTD, eIF5 residues 201–405 (S. cerevisiae, UniProt P38431 201-405)
# T1 sequence: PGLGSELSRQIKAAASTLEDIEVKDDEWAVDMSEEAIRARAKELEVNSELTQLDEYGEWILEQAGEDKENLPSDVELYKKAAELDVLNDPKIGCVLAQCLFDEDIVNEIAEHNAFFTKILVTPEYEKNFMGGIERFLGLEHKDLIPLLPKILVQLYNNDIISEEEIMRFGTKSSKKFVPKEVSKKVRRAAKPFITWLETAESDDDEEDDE
# B1: human eIF2β-K1 (K-box 1 with surrounding segments) (domain or fragment, UniProt P20042 1-45, looked up)
# chain: MSGDEMIFDPTMSKKKKKKKKPFMLDEEGDTQTEETQPSETKEVE
# B2: human eIF2β-K3 (K-box 3 with surrounding segments) (domain or fragment, UniProt P20042 106-173, looked up)
# chain: DVQEPTEPEDDLDIMLGNKKKKKKNVKFPDEDEILEKDEALEDEDNKKDDGISFSNQTGPAWAGSERD
# B3: human eIF2β-K2 (K-box 2 with surrounding segments) (domain or fragment, UniProt P20042 60-105, looked up)
# chain: DTRKKDASDDLDDLNFFNQKKKKKKTKKIFDIDEAEEGVKDLKIES
# B4: S. cerevisiae eIF2β residues 39–106 (K-boxes 2 and 3 with flanking regions) (domain or fragment, UniProt P09064 39-106, looked up)
# chain: GSGDDLFAGLKKKKKKSKSVSADAEAEKEPTDDIAEALGELSLKKKKKKTKDSSVDAFEKELAKAGLD
# B5: human eIF2β-NTT (residues 1–191), His6-tagged (domain or fragment)
# chain: MSGDEMIFDPTMSKKKKKKKKPFMLDEEGDTQTEETQPSETKEVEPEPTEDKDLEADEEDTRKKDASDDLDDLNFFNQKKKKKKTKKIFDIDEAEEGVKDLKIESDVQEPTEPEDDLDIMLGNKKKKKKNVKFPDEDEILEKDEALEDEDNKKDDGISFSNQTGPAWAGSERDYTYEELLNRVFNIMREKN
# B6: human 5MP1-CTD (domain or fragment, UniProt Q9Y6E2 248-419, looked up)
# chain: VQQSLGTRKELQKELQERLSQECPIKEVVLYVKEEMKRNDLPETAVIGLLWTCIMNAVEWNKKEELVAEQALKHLKQYAPLLAVFSSQGQSELILLQKVQEYCYDNIHFMKAFQKIVVLFYKADVLSEEAILKWYKEAHVAKGKSVFLDQMKKFVEWLQNAEEESESEGEEN
# B7: human 5MP1-CTD phosphomimetic mutant (5MP1-CTD-EE) (domain or fragment)
# chain: B6 chain with S165E, S167E
# B8: human eIF5-CTD (residues 232–431) (domain or fragment, UniProt P55010 232-431, looked up)
# chain: LERTIEERVNILFDFVKKKKEEGVIDSSDKEIVAEAERLDVKAMGPLVLTEVLFNEKIREQIKKYRRHFLRFCHNNKKAQRYLLHGLECVVAMHQAQLISKIPHILKEMYDADLLEEEVIISWSEKASKKYVSKELAKEIRVKAEPFIKWLKEAEEESSGGEEEDEDENIEVVYSKAASVPKVETVKSDNKDDDIDIDAI
# B9: human eIF2Bε-CTD phosphomimetic mutant (eIF2Bε-CTD-EE) (domain or fragment)
# chain: GSPQMDDIKVFQNEVLGTLQRGKEENISCDNLVLEINSLKYAYNISLKEVMQVLSHVVLEFPLQQMDSPLDSSRYCALLLPLLKAWSPVFRNYIKRAADHLEALAAIEDFFLEHEALGISMAKVLMAFYQLEILAEETILSWFSQRDTTDKGQQLRKNQQLQRFIQWLKEAEEEEEEDD
# B10: human eIF2Bε-CTD (domain or fragment, UniProt Q13144 543-721, looked up)
# chain: B9 chain with E175S, E176S
# Key:
# [1] = target: human eIF5-CTD phosphomimetic mutant (eIF5-CTD-EE) (human) (UniProt P55010); experiment: NMR titration
# [2] = target: B8; experiment: NMR titration
# [3] = target: B9; experiment: NMR titration
# human 5MP1-CTD = target: B6; experiment: NMR titration
# [4] = target: B7; experiment: NMR titration
# human eIF2Bε-CTD = target: B10; experiment: NMR titration
# [5] = target: B8; experiment: ITC
# [6] = target: T1, S. cerevisiae eIF5-CTD, eIF5 residues …; experiment: crystal structure
# [7] = target: B8; experiment: NMR titration; remark: listed apart in the source
# [8] = target: B5; experiment: NMR titration
# [9] = target: B2; experiment: NMR titration
# [10] = target: B5; experiment: ITC
# [11] = target: B2; experiment: ITC
molecule,measurement,setting,value
"human eIF2β-NTT (residues 1–191), His6-tagged (from UniProt P20042 1-191) (domain or fragment)",Kd,[1],2.3 µM
human eIF2β-K3 (K-box 3 with surrounding segments) (from UniProt P20042 106-173) (domain or fragment),Kd,[1],0.3 µM
human eIF2β-K1 (K-box 1 with surrounding segments) (from UniProt P20042 1-45) (domain or fragment),Kd,[1],0.2 µM
B1,Kd,[2],3 ± 1 µM
same,Kd,[3],4 ± 1 µM
same,Kd,human 5MP1-CTD,20 ± 7 µM
same,Kd,[4],11 ± 3 µM
same,Kd,human eIF2Bε-CTD,8 ± 1 µM
B2,Kd,[5],4.7 µM
same,Kd,[2],4 ± 1 µM
same,Kd,human 5MP1-CTD,37 ± 5 µM
same,Kd,human eIF2Bε-CTD,24 ± 3 µM
B3,Kd,[2],6 ± 1 µM
same,Kd,[3],2.3 ± 0.5 µM
same,Kd,human 5MP1-CTD,18 ± 3 µM
same,Kd,[4],5.6 ± 0.9 µM
same,Kd,human eIF2Bε-CTD,9 ± 3 µM
B4,binding result,[6],binds
B5,Kd,[5],33 µM
same,Kd,[7],37 ± 6 µM
B6,Kd,[8],63 ± 5 µM
B7,Kd,[8],45 ± 6 µM
same,Kd,[9],23 ± 3 µM
B8,stoichiometry N,[10],3.46
same,stoichiometry N,[11],1
B9,Kd,[8],14 ± 4 µM
same,Kd,[9],14 ± 1 µM
B10,Kd,[8],44 ± 3 µM
